Results taken from patent US20040224408A1, “THAP proteins as nuclear receptors for chemokines and roles in transcriptional regulation, cell proliferation and cell differentiation” (published 2004).

B1: human THAP1 (THanatos (death)-Associated Protein-1), full length (other)
chain: MVQSCSAYGCKNRYDKDKPVSFHKFPLTRPSLCKEWEAAVRRKNFKPTKYSSICSEHFTPDCFKRECNNKLLKENAVPTIFLCTEPHDKKEDLLEPQEQLPPPPLPPPVSQVDAAIGLLMPPLQTPVNLSVFCDHNYTVEDTMHQRKRIHQLEQQVEKLRKKLKTAQQRCRRQERQLEKLKEVVHFQKEKDDVSERGYVILPNDYFEIVEVPA
notes: It was tested as a Gal4-BD (pGBKT7) or Gal4-AD (pGADT7); also called hTHAP1; FLJ10477
B2: human chemokine SLC/CCL21, mature form (amino acids 24-134) (ligand)
chain: SDGGAQDCCLKYSQRKIPAKVVRSYRKQEPSLGCSIPAILFLPRKRSQAELCADPKELWVQQLMQHLDKTPSPQKPAQGCRKDRGASKTGKKGKGSKGCKRTERSQTPKGP
notes: also called SLC/6Ckine; SLC/CCL21 wild type

Experiments:
[1] = target: T1, Par4 deletion mutant lacking the leucine zipper/death domain (amino acids 1-276) (human, UniProt Q96IZ0 1-274); test: yeast two-hybrid (His/Ade selection)
T1 construct: Tested as a Gal4-BD or Gal4-AD fusion in yeast two-hybrid; also called Par4A; Par4Δ
T1 sequence: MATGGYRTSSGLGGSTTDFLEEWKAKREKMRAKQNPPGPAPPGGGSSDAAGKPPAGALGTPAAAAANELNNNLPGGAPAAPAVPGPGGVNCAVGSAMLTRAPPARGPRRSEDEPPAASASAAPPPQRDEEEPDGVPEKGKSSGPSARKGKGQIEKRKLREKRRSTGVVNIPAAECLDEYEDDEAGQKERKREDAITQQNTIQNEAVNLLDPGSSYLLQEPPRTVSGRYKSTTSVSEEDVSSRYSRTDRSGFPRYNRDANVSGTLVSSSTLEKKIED
Excerpt: We then examined whether the leucine zipper/death domain at the C-terminus of Par4, previously shown to be involved in Par4 binding to WT-1 and aPKC, was required for the interaction between THAP1 and Par4. Two Par4 mutants were constructed for that purpose, Par4A and Par4DD. Par4A lacks the leucine zipper/death domain while Par4DD contains this domain. pGBKT7-Par4A(amino acids 1-276) and pGADT7-Par4A. were constructed by sub-cloning a EcoRI-BglII fragment from pGADT7-Par4 into the EcoRI and BamHI sites of pGBKT7 and pGADT7. Par4DD (amino acids 250-342) was amplified by PCR, using pGBKT7-Par4 as template, with primers Par4.4 (5′-[…]-3′) (SEQ ID NO: 193) and Par4.5, and cloned into the EcoRI and BamHI sites of pGBKT7 and pGADT7 to obtain pGBKT7-Par4DD and pGADT7-Par4DD. Two-hybrid interaction between THAP1 and Par4 mutants was tested by cotransformation of AH109 with pGBKT7-THAP1 and pGADT7-Par4A or pGADT7-Par4DD and selection of transformants by His and Ade double auxotrophy according to manufacturer's instructions ([…] two-hybrid system 3, Clontech). […] Similar results were obtained when two-hybrid experiments were performed in the opposite orientation using Par4 or Par4 mutants (Par4A and Par4DD) as baits instead of THAP1 (FIG. 3A).

[2] = target: T2, Glutathione S-transferase (GST) control protein (pGEX-2T) (UniProt P08515 1-218 = GST); test: GST pull-down, immobilized GST control, in vitro translated 35S-labelled THAP1
T2 construct: Negative control immobilized on glutathione sepharose; also called GST beads; immobilized GST alone
T2 sequence (P08515 whole entry): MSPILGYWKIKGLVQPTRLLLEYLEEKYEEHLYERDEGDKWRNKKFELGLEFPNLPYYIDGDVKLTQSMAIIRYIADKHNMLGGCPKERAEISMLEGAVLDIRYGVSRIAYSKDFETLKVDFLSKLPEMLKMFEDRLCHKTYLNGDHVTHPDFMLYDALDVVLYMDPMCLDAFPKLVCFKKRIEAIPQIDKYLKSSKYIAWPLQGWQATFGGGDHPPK
Method: To confirm the interaction observed in yeast, we performed in vitro GST pull down assays. Par4DD, expressed as a GST-tagged fusion protein and immobilized on glutathione sepharose, was incubated with radiolabeled in vitro translated THAP1. To generate the GST-Par4DD expression vector, Par4DD (amino acids 250-342) was amplified by PCR with primers Par4.10 (5′-[…]-3′) (SEQ ID NO: 194) and Par4.5, and cloned in frame downstream of the Glutathion S-Transferase ORF, into the BamHI site of the pGEX-2T prokaryotic expression vector (Amersham Pharmacia Biotech, Saclay, France). GST-Par4DD(amino acids 250-342) fusion protein encoded by plasmid pGEX-2T-Par4DD and control GST protein encoded by plasmid pGEX-2T, were then expressed in E. Coli DH5α and purified by affinity chromatography with glutathione sepharose according to supplier's instructions (Amersham Pharmacia Biotech). The yield of proteins used in GST pull-down assays was determined by SDS-Polyarylamide Gel Electrophoresis (PAGE) and Coomassie blue staining analysis. In vitro-translated THAP1 was generated with the TNT-coupled reticulocyte lysate system (Promega, Madison, Wis., USA) using pGBKT7-THAP1 vector as template. […]

human THAP1 (THanatos …) = target: B1; test: yeast two-hybrid screen of the pGAD424-HEVEC cDNA library with pGBT9-SLC bait (His selection)
Excerpt: In an effort to define the function of novel HEVEC proteins and the cellular pathways involved, we used different baits to screen a two-hybrid cDNA library generated from microvascular human HEV endothelial cells (HEVEC). HEVEC were purified from human tonsils by immunomagnetic selection with monoclonal antibody MECA-79 as previously described (Girard and Springer (1995) Immunity 2:113-123). The SMART PCR cDNA library Construction Kit (Clontech, Palo Alto, Calif., USA) was first used to generate full-length cDNAs from 1 μg HEVEC total RNA. Oligo-dT-primed HEVEC cDNA were then digested with SfiI and directionally cloned into pGAD424-Sfi, a two-hybrid vector generated by inserting a SfiI linker (5′-[…]-3′) (SEQ ID NO: 181) between EcoRI and BamHI cloning sites of pGAD424 (Clontech). The resulting pGAD424-HEVEC cDNA two-hybrid library (mean insert size>1 kb, ˜3×10⁶ independant clones) was amplified in E. coli. […]

[3] = target: T2, Glutathione S-transferase (GST) control …; test: GST pull-down, immobilized GST control, in vitro translated 35S-labelled SLC/CCL21
[4] = target: T3, THAP1-C1 deletion mutant (amino acids 90-213) (human, UniProt Q9NVV9 90-213); test: yeast two-hybrid, pGADT7-THAP1 mutant with pGBKT7-SLC/CCL21
T3 construct: Tested as a Gal4-BD or Gal4-AD fusion, as in vitro translated 35S-labelled protein and as an EGFP fusion; also called THAP1ΔTHAP; THAP1?THAP
T3 sequence: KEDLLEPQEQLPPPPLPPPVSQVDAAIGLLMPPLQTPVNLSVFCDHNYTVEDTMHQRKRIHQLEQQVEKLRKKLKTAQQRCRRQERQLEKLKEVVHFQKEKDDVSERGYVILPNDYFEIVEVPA
Method: (§1) Two-hybrid interaction between THAP1 mutants and chemokine SLC/CCL21 was tested by cotransformation of AH109 with pGADT7-THAP1-C1, -C2, -C3, -N1, -N2 or -N3 and pGBKT7-SLC/CCL21 and selection of transformants by His and Ade double auxotrophy according to manufacturer's instructions ([…] two-hybrid system 3, Clontech). pGBKT7-SLC/CCL21 vector was generated by subcloning the BamHI SLC/CCL21 fragment from pGBT9-SLC (see example 1) into the unique BamHI cloning site of vector pGBKT7 (Clontech).

[5] = target: T4, THAP1-N3 deletion mutant (amino acids 1-192) (human, UniProt Q9NVV9 1-192); test: as above
T4 construct: Tested as a Gal4-BD or Gal4-AD fusion, as in vitro translated 35S-labelled protein and as an EGFP fusion
T4 sequence: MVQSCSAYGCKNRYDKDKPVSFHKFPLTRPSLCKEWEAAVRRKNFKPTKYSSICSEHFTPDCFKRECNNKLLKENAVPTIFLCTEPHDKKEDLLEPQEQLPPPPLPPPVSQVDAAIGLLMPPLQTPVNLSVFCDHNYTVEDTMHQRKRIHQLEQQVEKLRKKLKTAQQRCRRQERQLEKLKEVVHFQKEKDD
Method: as §1

[6] = target: T5, THAP1-N2 deletion mutant (amino acids 1-166) (human, UniProt Q9NVV9 1-166); test: as above
T5 construct: Tested as a Gal4-BD or Gal4-AD fusion, as in vitro translated 35S-labelled protein and as an EGFP fusion
T5 sequence: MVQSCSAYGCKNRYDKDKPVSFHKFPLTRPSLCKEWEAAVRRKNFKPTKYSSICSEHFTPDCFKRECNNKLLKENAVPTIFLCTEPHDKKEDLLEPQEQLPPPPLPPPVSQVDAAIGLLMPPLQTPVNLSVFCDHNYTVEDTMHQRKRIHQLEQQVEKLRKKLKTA
Method: as §1

| Binder | binding result [1] | binding result [2] | binding result (human THAP1 (THanatos …)) | binding result [3] | binding result [4] | binding result [5] | binding result [6] |
| --- | --- | --- | --- | --- | --- | --- | --- |
| B1 | no binding | no binding |  |  |  |  |  |
| B2 |  |  | binds | no binding | binds | no binding | no binding |
